# Biological target: SARS-CoV-2 nucleocapsid protein (N-protein) (SARS-CoV-2, UniProt P0DTC9 1-419)
# Test: SV-AUC
row,Binder,Kd [nM]
1,GTGT (ssDNA) [(GT)2],> 10000
2,TTTTTTTTTT (ssDNA) [T10],< 100
3,TTTTTT (ssDNA) [T6],290
